Ten sequences from the DeepSol protein solubility set can be followed below.

The nature of this series: soluble on expression in E. coli; label from the status in PepcDB or PDB records.
Turning to “MSQEIYDYANQLERAVRALPEYQKVLEVKEAIQADVSASELFDEFVAMQEKIQGMMQSGQMPTAEEQTSIQELSQKIEANDQLKAYFEAQQALSVYMSDIERIVFAPLKDLVK”, the “soluble on expression in E. coli” value is reported as “not soluble”.

“MGSDKIHHHHHHMSAVLYSNLKFLRFKDQLDALAGGTVAPPVHIRIKPTNRCNHKCWYCAYRTDDLKLGEDMDESDLIPEAKMMEIADDIVAMGVKAVTFSGGGEPLLYKPLPEVIDRLAAGGVRVATLTNGANLKGKVAQSLARHATWVRVSVDAWDDDSYVSSRGAKAGEFTKLLENMKAFVETGTKCVLGVSFIAGKDNYHRLSEVCARFKAIGVNHVKLSAAVVGNSVDENNRYHREFAEGARAEIERAKALSGDGFSVLDHFHEMESRFEKDYHRCPFLQFLTVIGADQTVYTCQDKAYTKEGTLGSIRGRSFRDYWFSEENRQRMAEFDPSRLCRHHCVSHSKNQAIMQYLSIDSEHGLFV”: the “soluble on expression in E. coli” value is recorded as “not soluble”.

On to “MSLSKNDHRITHNKSDKDNLDDDFSLFRDEVKGVKKLRQDTILHAPNRNPKQKEIRRTEREASDNDFYFSDEFMPHLTDEGPTRYARSDVSKYEVKRLRRGVYVPDVFLDMHGMTQQEAKRELGAMIAYCLKENVHCACVQHGIGKHILKQNVPLWLAQHPDVLAFHQAPLEFGGDGALLVLLSIPEKEGHHHHHH”, for which the “soluble on expression in E. coli” value was “soluble”.

For “MSLEDGPVTNPRQEEPQKVVKEEGFARGADVSWLTQMEAEGLKFYTPDENRQEMECMDLLRDYCGVNSIRLRVWVNPKDGWNNMNDVIVKAKRAERLGLRTMIDFHFSDTWADPGHQEMPEAWKELSFDDLKIALSEHVKSVLTALKAVGVTPEWVQVGNETTPGMMLPVGSVDNPEQLTALNNAGYDAVKAICPDAKVIVHLDAGNDQWVYNRMFDILQANGGKYDMIGMSLYPYWAEQEGKTGGWLKVADDCIANIKHVKQKYNKPVMICEIGMPYDQAEACKQLITKMMQADVEGIFYWEPQAPNGYNDGYNLGCFDNNAPTIALDAFKIEGHHHHHH”, the “soluble on expression in E. coli” value is recorded as “soluble”.

As for “MTRSGNTRNGKYMGEDKRRYHTITNILQYNLIPDFFTIFAKYCITFKNMTMEKTFAQISELFDQFSKDASLQVEKGNKAAGTRARKASLELEKLLKRFRKESLEASK”, the “soluble on expression in E. coli” value is “not soluble”.

As to “MAHHHHHHMNTFNYIRSPTGVHEVDGPPNDCVSTVRFSPSGCPYLLLGAASWDKTCRVWQVIHQPNAINIRSQPMTFAVSDAPILDMSFSADGRVFWGGCSKTATMWNLTTNQKIIVGSHDLPVSCIAHVSSNTGTEMLVTGSWDGRLRFWDLRQPMPIKEEILGEPVFGLDAQRSFPMAACVTGRKVHIFNLQTMMKTNELKPPPLLKFNLGCVACSPQKDGVVVGSSEGRLSFIPLQAEVGCTFKAHVLVEDNVLYMHQTNFCVISPRVPHMISGGGDGRIGCWDYKKRSIVGYGESETRLENRNKSISAGDISADGSLLAFARSYDWAMGKTGCIPNEPHSIHIRSAEWKSALS”, the “soluble on expression in E. coli” value is given as “not soluble”.

Take “GMCVEKTPWELVIDFHGHTCPDIALGYRIAQLAQREMGIRPAPDSECLVKAYTQSCALDAIQVLNKATIGRHALIIEETHRYMYQFHFTGTQDIHQFTVSPAVLDHLETLRHPDLSPRERQNKVLEGVQYVLTLEESAFCHYDKIPGQLSKIV”: the “soluble on expression in E. coli” value is reported as “soluble”.

In the case of “MRITLVTDSTSDLPQDLRGRLGVRVVPLYVNLSGAIYRDWEEITPTEIFQKVREGAAFPTTSQPSPEDFARVYREALEEADHVLSLHISGKLSGTVQSAELAAQEFPGRVTVVDTQAASLGVGMMVLRAKELLEEGQSLEAVLAELERLRRDHFVRFSVATLEFLKRGGRIGGAQAFLGTLLNLKPVLTLKEGRVEAAGRARGEKKAREEILKAFRAWAEGRKRIRAYFLYSGDEDAVAALRQEVLASGLPVEEALVNELGAVIASHTGPGTYGFYAYSL”, the “soluble on expression in E. coli” value is listed as “soluble”.

For the sequence “MAHHHHHHMGCSGSKNASNPKDGAASKGGKDGKTTADRKVAWERIRCAIPRDKDAESKSRRIELFKRFDTNGTGKLGFREVLDGCYSVLKLDEFTTHLPDIVQRAFDKAKDLGNKVKGVGEEDLVEFLEFRLMLCYIYDIFELTVMFDTMDKDGSLLIELQEFKEALPKLKEWGVDITDATTVFNEIDTNGSGVVTFDEFSCWAVTKKLQVCGDPDGEGNGANEGDGANAGDGVPAAEGSA”, the “soluble on expression in E. coli” value is “soluble”.

Consider “TSITPSSQDICRICHCEGDDESPLITPCHCTGSLHFVHQACLQQWIKSSDTRCCELCKYEFIMETKL”, for which the “soluble on expression in E. coli” value is reported as “soluble”.
